In PMC5428262:

Target: GFP-tagged tomosyn1 (GFP-Tomosyn1), wild type (rat) (UniProt Q9WU70)
Experiment: co-IP; GFP antiserum and protein G agarose, overnight, 300 ug extract of INS 832/13 cells expressing GFP-tomosyn1 constructs; lysis buffer with 1% Triton X-100, 150 mM NaCl, 25 mM N-ethylmaleimide; blot; cells in regular media or treated with 10 mM glucose or 30 mM KCl (15 min) in KRB

Sequence of UniProt Q9WU70 (Q9WU70 whole entry): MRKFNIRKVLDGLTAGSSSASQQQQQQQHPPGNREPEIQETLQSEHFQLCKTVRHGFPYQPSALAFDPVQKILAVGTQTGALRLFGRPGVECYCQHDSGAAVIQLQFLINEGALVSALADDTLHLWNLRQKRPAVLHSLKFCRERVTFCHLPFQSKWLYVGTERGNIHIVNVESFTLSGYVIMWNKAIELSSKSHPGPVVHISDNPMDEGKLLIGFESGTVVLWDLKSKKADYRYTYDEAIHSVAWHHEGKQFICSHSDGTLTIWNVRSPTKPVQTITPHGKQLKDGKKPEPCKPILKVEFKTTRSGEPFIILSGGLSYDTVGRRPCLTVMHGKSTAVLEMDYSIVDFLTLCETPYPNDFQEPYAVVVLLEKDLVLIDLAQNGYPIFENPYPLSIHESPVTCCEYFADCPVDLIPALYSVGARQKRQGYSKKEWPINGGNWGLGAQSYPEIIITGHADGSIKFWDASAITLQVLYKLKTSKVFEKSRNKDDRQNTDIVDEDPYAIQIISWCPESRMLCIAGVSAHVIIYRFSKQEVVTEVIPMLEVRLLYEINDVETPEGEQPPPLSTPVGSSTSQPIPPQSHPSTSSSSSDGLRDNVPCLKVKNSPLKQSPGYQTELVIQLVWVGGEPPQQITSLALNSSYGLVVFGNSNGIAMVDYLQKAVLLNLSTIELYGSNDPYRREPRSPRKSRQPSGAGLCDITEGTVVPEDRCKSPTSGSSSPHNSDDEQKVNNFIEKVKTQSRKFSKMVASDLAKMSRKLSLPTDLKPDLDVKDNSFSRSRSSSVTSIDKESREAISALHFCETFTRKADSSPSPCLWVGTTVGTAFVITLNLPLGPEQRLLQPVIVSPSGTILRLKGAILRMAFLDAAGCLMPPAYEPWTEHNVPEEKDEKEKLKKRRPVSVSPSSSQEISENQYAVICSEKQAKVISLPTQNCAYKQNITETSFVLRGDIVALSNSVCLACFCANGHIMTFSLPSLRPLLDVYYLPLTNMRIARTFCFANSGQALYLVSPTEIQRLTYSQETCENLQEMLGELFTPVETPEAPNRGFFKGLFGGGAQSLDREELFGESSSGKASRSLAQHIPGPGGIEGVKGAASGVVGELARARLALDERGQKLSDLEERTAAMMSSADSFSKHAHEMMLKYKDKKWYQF

B1: secretagogin (INS 832/13 cells) (natural protein)
chain: MDNAHRQTQAHLDAACFWQIWQRFDKDEKGYIKETELDAFFDDLLAKFGIEDTLMEENVQKMKEQLMVGHDISKEGRILMKELASMFLSEDENFLLFFRLETPLDNSVEFMQIWRKYDADSSGFISAAELSNFLRDLFLHHKKVISEAELEEYTSTMEKIFDRNKDGRLDLNDLARILALQENFLLQFKMDASSTEERKRDFEKIFAHYDVSKTGALEGPEVDGFVKDMMELVQPSISGVDLDKFREILLRHCDVNKDGKIQKSELALCLGLKINP
How did the percent decrease of the interaction after KCl stimulation turn out when B1 was run?
Its percent decrease of the interaction after KCl stimulation is 65.3%.

What about the percent decrease of the interaction after glucose stimulation of the same binder?
The percent decrease of the interaction after glucose stimulation was 44.6%.
